Assay results as given in PMC10928576, “Cpne7 deficiency induces cellular senescence and premature aging of dental pulp” (Aging Cell, 2023).

Tests used:
[1] = test system: periodontal ligament stem cells (PDLSCs); assay: Mouse subcutaneous ex vivo transplantation (HA/TCP, PCL), PDLSCs; type: in vivo, immunocompromised mice
Method: (§1) The hDPCs, ADSCs, BMSCs, GFs, and PDLSCs (2 × 10^6) were mixed with 100 mg of hydroxyapatite/tricalcium phosphate ceramic powder (Zimmer) alone or with rCPNE7 (100 ng/mL) in an 0.5% fibrin gel. The poly ε‐caprolactone (PCL: Mw 80,000, Sigma–Aldrich, Oakville, ON, Canada) was wrapped around the mixed cells and transplanted subcutaneously into immunocompromised mice (NIHbg‐nu‐xid; Harlan Laboratories) for 6 weeks (n = 3, each group).
(§2) Figure S1. (A) The gingival fibroblasts (GFs) or (B) periodontal ligament stem cells (PDLSCs) were mixed with 100㎎ of hydroxyapatite/tricalcium phosphate (HA) particles alone (control) or with rCPNE7 in a poly ε-caprolactone (PCL) spaces and transplanted subcutaneously into immunocompromised mice for 6 weeks. White arrows indicate newly formed mineralized tissues. Representative immunofluorescence images of DSP (red) were observed (n=3). DAPI (blue) was counterstained to indicate the nucleus. Scale bars: 50㎛.

[2] = test system: hDPCs; assay: Mouse subcutaneous ex vivo transplantation (HA/TCP, PCL), hDPCs; set-up: species or system human cells in immunocompromised mice; conditions: hDPCs + 100 mg HA/TCP with rCPNE7 100 ng/mL in PCL, 6 weeks, vs control, n = 3
Method: as §1

[3] = test system: hDPCs; assay: γ-H2AX / P21 western blot in H2O2-treated hDPCs; type: cell-based, human; conditions: H2O2 + rCPNE7, after 48 h, vs H2O2 only
Method: Cellular proteins (30 μg) were separated by 10% or 15% sodium dodecyl sulfate‐polyacrylamide gel electrophoresis (SDS‐PAGE) and transferred to polyvinylidene fluoride (PVDF) membranes. The PVDF membranes were blocked for 1 h with 5% nonfat dry milk in Tris‐buffered saline containing 0.1% Tween 20 (TBS‐T) and incubated overnight at 4°C with the primary antibody diluted in TBS‐T (1:5000). After washing, membranes were incubated for 1 h with the appropriate secondary antibodies. Labeled protein bands were detected under an enhanced chemiluminescence system (Amersham Biosciences/GE Healthcare). All reactions were performed in triplicate. Semi‐quantitative analyses were performed using Image J software (National Institute of Health, MD, USA) (n = 3, each group).

[4] = test system: hDPCs; assay: Live-cell imaging of intracellular ROS (DCFDA); type: cell-based, human; conditions: rCPNE7 treatment 15 min after H2O2 treatment, n = 3
Method: Human DPCs were stained with DCFDA‐cellular ROS assay kit (Abcam, ab113851) for 40 min at 37°C in a humidified environment at 5% CO2. Then, live cell imaging was performed with a filter set appropriate for fluorescein (FITC) (n = 3, each group). Low light conditions were maintained to avoid photobleaching and photo‐oxidation of DCF.

[5] = test system: hDPCs; assay: Senescence β-galactosidase (SA-β gal) staining of H2O2-treated hDPCs; type: cell-based, human
Method: (§3) The hDPCs were obtained from the Seoul National University Dental Hospital, and the experimental protocol was accepted by the Institutional Review Board of the Seoul National University (S‐D20140007). Informed consent was obtained from patients. Human DPCs were isolated and used in an in vitro experiment as described previously (Jung et al., [2011]). Human DPCs were cultured in minimum essential medium α (Gibco BRL, 12571063) supplemented with 10% heat‐inactivated fetal bovine serum (FBS; Gibco BRL, 16000044) and antibiotic‐antimycotic (Gibco BRL, 15240062) at 37°C in an atmosphere with 5% CO2. The cells were then treated with recombinant CPNE7 protein (rCPNE7, 100 ng/mL; Origene, TP306428) or CPNE7‐derived peptide (CPNE7‐DP, 10 μg/mL). After oxidative stress‐induced DNA damage using Hydrogen Peroxide Solution (H2O2; Merck, H1009) rCPNE7 was treated after replacement with a new culture medium (α‐MEM).
Human DPCs were fixated with Fixative Solution (Cell Signaling Technology, #9860) at room temperature for 15 min. Rinsed twice with PBS, the cells were then stained with β‐Galactosidase Staining Solution (Cell Signaling Technology, #9860) at 37°C overnight in a dry incubator (no CO2). Cells were observed using light microscopy (Primovert, Zeiss, Germany) (n = 3, each group).

[6] = test system: hDPCs; assay: γ-H2AX immunofluorescence in hDPCs; type: cell-based, human; conditions: rCPNE7 after 30 min of 1 mM H2O2, vs H2O2 only
Method: Human DPCs and tissue sections were treated with phosphate‐buffered saline (PBS) and 0.5% Triton X‐100 for permeabilization. After washing and blocking, cells and tissue samples were incubated overnight at 4°C with γ‐H2AX (1:100, Cell Signaling Technology, #9718) and CPNE7 (1:100) in blocking buffer (PBS and 2% bovine serum albumin). Subsequently, FITC‐conjugated anti‐rabbit secondary antibody (1:500) or Cy3‐conjugated anti‐rabbit (1:500) was applied. Cells were visualized using confocal microscopy (LSM980, Zeiss, Germany). The chromosomal DNA in the nucleus was stained with 4′,6‐diamidino‐2‐phenylindole (DAPI). The microtubules were detected using α‐TUBULIN antibodies (1:1000; Santa Cruz), and F‐ACTIN was stained with Alexa Fluor 488 or rhodamine‐conjugated phalloidin (Invitrogen). Flag‐tagged rCPNE7 was detected using Flag‐antibodies (1:500; Sigma–Aldrich), and TAU was detected by TAU antibodies (1:100; CUSABIO). Immunofluorescence staining of TAU, F‐ACTIN, and α‐TUBULIN was analyzed using the IMARIS cell imaging software (Bitplane) (n = 3, each group).

[7] = test system: bone marrow stem cells (BMSCs); assay: Mouse subcutaneous ex vivo transplantation (HA/TCP, PCL), BMSCs; type: in vivo, immunocompromised mice; conditions: rCPNE7 treatment
Method: as §1

[8] = test system: shCpne7-transfected hDPCs; assay: DNA damage rescue model in shCpne7-transfected hDPCs (western blot); type: cell-based, human; conditions: hDPCs treated after shCpne7 transfection; rCPNE7 100 ng/mL or CPNE7-DP 10 μg/mL
Method: as §3, with “(α‐MEM). […]” for “(α‐MEM).”
Cellular proteins (30 μg) were separated by 10% or 15% sodium dodecyl sulfate‐polyacrylamide gel electrophoresis (SDS‐PAGE) and transferred to polyvinylidene fluoride (PVDF) membranes. […] Labeled protein bands were detected under an enhanced chemiluminescence system (Amersham Biosciences/GE Healthcare). […] Semi‐quantitative analyses were performed using Image J software (National Institute of Health, MD, USA) (n = 3, each group).

[9] = test system: adipogenic stem cells (ADSCs); assay: Mouse subcutaneous ex vivo transplantation (HA/TCP, PCL), ADSCs; type: in vivo, immunocompromised mice; conditions: adipose stem cells, rCPNE7 treatment
Method: as §1

[10] = test system: dentinal damage sites; conditions: treated onto dentinal damage sites; ref Lee et al., [2020]; cited from earlier work
Source text: However, little is known about how odontoblasts age and survive through the days beyond entering dormancy, which actually comprise the major part of their life span. Aging is defined as a gradual loss of physiologic tissue integrity and impaired function, ultimately leading to cell death. Aged pulp is characterized by lower cell population, pulp stem cell tiredness, and, overall, reduced responsiveness to external stimuli (Bernick & Nedelman, [1975]). It has been reported that one of the survival mechanisms of aging odontoblasts is autophagy, which involves degradation and turnover of cellular ...

[11] = test system: hDPCs; assay: Comet assay; type: cell-based, human; conditions: 24 h, 1 mM H2O2 + rCPNE7, vs H2O2 only, n = 3
Method: Human DPCs were combined with Comet Agarose (Abcam, ab238544) at 1/10 ratio (v/v), mixed by pipetting, and immediately transferred onto the top of the Comer Agarose Base Layer Slide (Abcam, ab238544). Set horizontally, the slides were incubated at 4°C in the dark for 15 min, and placed in a small basin/container containing pre‐chilled Lysis Buffer (Abcam, ab238544). They were immersed in the buffer for 1 h at 4°C in the dark. After 1 h, aspiration of the Lysis Buffer from the container was done and replaced with a pre‐chilled Alkaline Solution (Abcam, ab238544), followed by electrophoresis chamber filled with the Alkaline Electrophoresis Solution. Voltage was applied to the chamber for 30 min at 1 volt/cm. The slides were then rinsed with pre‐chilled DI H2O and replaced with cold 70% Ethanol for 5 min. The slide was removed from the 70% Ethanol and allowed to air dry. Once the slide was completely dry, staining with Vista Green DNA Dye (Abcam, ab238544) was done at room temperature for 15 min. Cells were visualized using confocal microscopy (LSM980, Zeiss, Germany) (n = 3, each group).

[12] = test system: hDPCs
[13] = test system: hDPCs; assay: RNA-sequencing of rCPNE7-treated hDPCs; type: cell-based, human; conditions: n = 3
Method: The isolated RNA (n = 3, each group) was shipped to Macrogen (Seoul, Korea) for the library preparation, sequencing, and analysis of data. The cDNA Library for sequencing was prepared using TruSeq Stranded mRNA LT Sample Prep Kit. Total RNA was randomly fragmented, converted to complementary DNA (cDNA), and amplified according to the manufacturer's protocol. The cDNA was then ligated to sequencing adapters. Sequencing was performed on Illumina's HiSeq2500 platform. HISAT2 was used for mapping trimmed reads to reference genome (UCSC mm10), and the transcript assembly was performed using StringTie. To identify differentially expressed genes (DEGs), the expression profile was calculated for each sample and normalized to FPKM. KEGG database and Gene Ontology were used to perform functional annotation and gene‐set enrichment analysis on DEGs for known gene annotation. Genes with |fc| 1.5 and independent T‐test raw p‐value <0.05 were counted as significant.

[14] = test system: human dental pulp cells (hDPCs); assay: Live-cell imaging of hDPC morphology with or without rCPNE7; type: cell-based; conditions: rCPNE7 100 ng/mL for 24 h, then differentiation media 7 days, vs control, n = 3
Method: as §3
The morphologic change of hDPCs treated with or without rCPNE7 was measured by live‐cell imaging (n = 3, each group). After being treated with rCPNE7 for 24 h, the cells were differentiated for 7 days and scanned for 2 days. Bright‐field images of the cells were acquired using a confocal laser scanning microscopy system (LSM980, Zeiss, Germany). […] Timelapse images collected from a single Z plane were recorded at 8‐min intervals.

[15] = test system: gingival fibroblasts (GFs); assay: Mouse subcutaneous ex vivo transplantation (HA/TCP, PCL), GFs; type: in vivo, immunocompromised mice
Method: as §1, §2

B1: rCPNE7: recombinant CPNE7 protein (Origene, TP306428) (protein, UniProt Q9UBL6 1-633, looked up)
Copine-7: MSAGSERGAAATPGGLPAPCASKVELRLSCRHLLDRDPLTKSDPSVALLQQAQGQWVQVGRTEVVRSSLHPVFSKVFTVDYYFEEVQRLRFEVYDTHGPSGFSCQEDDFLGGMECTLGQPAQKWLLQVVMRVSVDVLGPAGHCAKHFLCCTESSHLARTGPSFLLRYDDLCLPWATAGAVRWWTCRGGHTQGWQIVAQKKVTRPLLLKFGRNAGKSTITVIAEDISGNNGYVELSFRARKLDDKDLFSKSDPFLELYRVNDDQGLQLVYRTEVVKNNLNPVWEAFKVSLSSLCSCEETRPLKCLVWDYDSRGKHDFIGEFSTTFEEMQKAFEEGQAQWDCVNPKYKQKRRSYKNSGVVVLADLKFHRVYSFLDYIMGGCQIHFTVAIDFTASNGDPRNSCSLHYINPYQPNEYLKALVSVGEICQDYDSDKRFSALGFGARIPPKYEVSHDFAINFNPEDDECEGIQGVVEAYQNCLPRVQLYGPTNVAPIISKVARVAAAEESTGKASQYYILLILTDGVVTDMADTREAIVRASRLPMSIIIVGVGNADFTDMQVLDGDDGVLRSPRGEPALRDIVQFVPFRELKNASPAALAKCVLAEVPKQVVEYYSHRGLPPRSLGVPAGEASPGCTP
amount of newly formed DSP-positive mineralized tissue ([1]; PDLSCs + HA/TCP with rCPNE7 in PCL spaces, 6 weeks, vs control, n = 3): slightly greater amount
odontoblastic differentiation upon treatment ([1]; PDLSCs, rCPNE7 treatment): did not undergo odontoblastic differentiation
odontoblast-like differentiation and dentin-like tissue-forming capacity ex vivo [2]: enhanced odontoblast‐like differentiation and dentin‐like tissue‐forming capacity
protein expression level of γ-H2AX (western blot) [3]: hardly detected
intracellular ROS level (DCFDA fluorescence) [4]: gradually decreased back to the normal level
progress of cellular senescence (SA-β gal) ([5]; hDPCs in growth media containing rCPNE7 for 72 h after oxidative stress (1 mM H2O2) for an hour, vs control): progressed more slowly than the control
number of SA-β gal-positive dental pulp cells ([5]; hDPCs passage 3, 1 mM H2O2 + rCPNE7, an hour later, vs H2O2 only, n = 3): significantly decreased
accumulation of DNA damage (γ-H2AX immunofluorescence) [6]: rarely observed
odontoblastic differentiation upon treatment [7]: did not undergo odontoblastic differentiation
expression level of γ-H2AX (western blot) [8]: evidently diminished
odontoblastic differentiation upon treatment [9]: did not undergo odontoblastic differentiation
dentin formation at dentinal damage sites [10]: tertiary dentin formation of tubular nature
length of comet tail (fragmented DNA) [11]: much shorter
cell viability (WST-8) ([12]; rCPNE7 after 30 min treatment of 1 mM or 2 mM H2O2, 48 h, vs H2O2 only): cell viability was higher
cell-to-cell contact (light microscopy) ([12]; rCPNE7 after 30 min treatment of H2O2, vs H2O2 only): more organized
mRNA expression levels of histone and chromatin-related genes [13]: significantly increased
cellular process morphology [14]: elongation of a uni‐directional cellular process was observed
amount of newly formed DSP-positive mineralized tissue ([15]; GFs + HA/TCP with rCPNE7 in PCL spaces, 6 weeks, vs control, n = 3): slightly greater amount
odontoblastic differentiation upon treatment ([15]; GFs, rCPNE7 treatment): did not undergo odontoblastic differentiation
